Sequences and labels used below:
B1: trypsin variant SEQ ID NO: 102 (protein)
chain: IVGGYTCAANSIPYQVSLNSGSHRCGGSLINSQWVVSAAHCYKPRIQVRLGEHNIHVLEGNEQFINAAKIITHPNFNPNTLDNDIMLIKLSSPATLNSHVATVSLPTSCAAAGTECLISGWGNTSSSGSSMPSLLQCLKAPVLSDSSCKSSYPGQITGNMICVGFLEGGADACQGDSGGPVVCNGQLQGIVSSGYGCAQKNKPGVYTKVCNYVNWIQQTIAAN
B2: trypsin variant SEQ ID NO: 109 (protein)
chain: B1 chain with P44S, P78G, H99N, S125C
B3: trypsin variant SEQ ID NO: 104 (protein)
chain: B1 chain with P44S, H99N, S125C
B4: trypsin variant SEQ ID NO: 103 (protein)
chain: B1 chain with A172S
B5: porcine trypsin variant no. 105 (SEQ ID NO: 105) (protein)
chain: B1 chain with P44S, H99N, S125A, M131Y
B6: trypsin variant SEQ ID NO: 108 (protein)
chain: B1 chain with H56D, H99A, S125C
B7: trypsin variant SEQ ID NO: 110 (protein)
chain: B1 chain with P44S, T107R, S125C
B8: trypsin variant SEQ ID NO: 107 (protein)
chain: B1 chain with S125C
B9: trypsin variant SEQ ID NO: 106 (protein)
chain: B1 chain with P44S, H99A, S125C

The record followed here is patent publication US20230303994.

Numbering of substitutions follows the chain as printed.

For one series, the target named is pre-pro-insulin glargine.
B1 returned a Purity Insulin Glargine of 88.7 area %, a Yield of over 90%, a desArg of 0.4 area % and a desThr of 1.2 area %.

Protein B2 registered a Purity Insulin Glargine of 85.9 area %, a Yield of over 80%, a desArg of 0.7 area % and a desThr of 0.5 area %.

For B3, the Purity Insulin Glargine stood at 89.3 area %, the Yield was over 90%, the desArg is 1.1 area % and the desThr came out at 1 area %.

In turn, B4 showed a Purity Insulin Glargine of 90.7 area %, a Yield of over 90%, a desArg of 0.9 area % and a desThr of 1.4 area %.

B5 came in with a Purity Insulin Glargine of 88.9 area %, a Yield of over 90%, a desArg of 1 area % and a desThr of 0.9 area %.

Protein B6 returned a Purity Insulin Glargine of 88.8 area %, a Yield of over 90%, a desArg of 0.8 area % and a desThr of 0.7 area %.

The protein B7 yielded a Purity Insulin Glargine of 90.6 area %, a Yield of over 90%, a desArg of 0.9 area % and a desThr of 0.6 area %.

B8 came in with a Purity Insulin Glargine of 88.1 area %, a Yield of over 90%, a desArg of 0.4 area % and a desThr of 1.3 area %.

Regarding B9, the Purity Insulin Glargine stood at 86.8 area %, the Yield was over 90%, the desArg amounted to 0.7 area % and the desThr was determined as 1 area %.

In the next series the target is pre-pro-human insulin.
Consider B1, for which the “Activity PPI cleavage” value is “yes” and the Selectivity is given as over 90%.

As to B2, the “Activity PPI cleavage” value is listed as “yes” and the Selectivity is recorded as over 90%.

As for B3, the “Activity PPI cleavage” value is recorded as “yes” and the Selectivity was over 90%.

In the case of B4, the “Activity PPI cleavage” value is given as “yes” and the Selectivity is on record as over 90%.

B5: the “Activity PPI cleavage” value is on record as “yes” and the Selectivity was over 90%.

Consider B6, for which the “Activity PPI cleavage” value is reported as “yes” and the Selectivity is over 80%.

Turning to B7, the “Activity PPI cleavage” value is recorded as “yes” and the Selectivity is listed as over 90%.

As to B8, the “Activity PPI cleavage” value is recorded as “yes” and the Selectivity is over 90%.

On to B9, for which the “Activity PPI cleavage” value is listed as “yes” and the Selectivity is recorded as over 90%.
